Results as given in PMC12723722, “Phosphorylation event changes the RNA binding mode of EZH2 disordered segment”.

Tests used:
EZH2 loop WT = EZH2 loop WT (UniProt Q15910 340-435); assay: EMSA; small but clear shift; EMSA: LightShift RNA EMSA kit protocol, 1-2 nM refolded RNA, 30 min room temperature, 4 or 6% native PAGE, 0.5x TBE; MST: Monolith NT.115, standard treated capillaries, 40% MST power; binding buffer, salt and pH not given in the material; conditions: protein: recombinant; tags: His tag implied (pET22b, HisTrap); label: 3' biotin (EMSA); Cy5 aminoallyl-UTP for labelled RNA; hairpin (predicted)
EZH2 loop WT, sequence (Q15910 340-435): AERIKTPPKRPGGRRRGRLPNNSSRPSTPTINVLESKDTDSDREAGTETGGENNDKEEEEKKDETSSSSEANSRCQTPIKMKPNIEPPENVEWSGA

Thymosin beta 4 (Tβ4) = Thymosin beta 4 (Tβ4) (UniProt P62328 2-44, not fully specified); assay: EMSA; EMSA: LightShift RNA EMSA kit protocol, 1-2 nM refolded RNA, 30 min room temperature, 4 or 6% native PAGE, 0.5x TBE; MST: Monolith NT.115, standard treated capillaries, 40% MST power; binding buffer, salt and pH not given in the material; conditions: protein: recombinant; label: 3' biotin (EMSA); Cy5 aminoallyl-UTP for labelled RNA; hairpin (predicted)
Thymosin beta 4 (Tβ4), sequence (P62328 2-44): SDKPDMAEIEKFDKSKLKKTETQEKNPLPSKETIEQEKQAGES

## AAGAAUGGCCUCGCGGAGGCAUGCGUCAUGCUAGCGUGCGGGGUACUCUU (structured_RNA) [R50]
EZH2 loop WT
  binding result: binds
Thymosin beta 4 (Tβ4)
  binding result: no binding
